Reference: PMC11234460, “In Silico Discovery of Stapled Peptide Inhibitor Targeting the Nur77‐PPARγ Interaction and Its Anti‐Breast‐Cancer Efficacy” (Advanced Science, 2024)
Bridges are numbered along the chain shown (N, C = ends). Where no end group is shown, it is not given here. [ ]: non-standard residue; d: D form. S5 = C=CCCC[C@](C)(N)C(=O)O

Assays:
[1] = molecular target: T1, LBD fragment of human Nur77 (residues 351–598) (human, UniProt P22736 351-598); assay: MST; purified Nur77 LBD labelled with fluorescent dye; peptides 0.1-100 × 10^-6 M; PBST (0.05% Tween-20); 20 min at room temperature; Dianthus (NanoTemper); conditions: both partners purified
T1 construct: Labelled with a fluorescent dye for MST; amine-coupled to the chip for SPR; also called Nur77 LBD; Nur77-LBD; source: E. coli BL21(DE3), purified (Ni-NTA, Superdex 200 gel filtration)
T1 sequence (P22736 351-598): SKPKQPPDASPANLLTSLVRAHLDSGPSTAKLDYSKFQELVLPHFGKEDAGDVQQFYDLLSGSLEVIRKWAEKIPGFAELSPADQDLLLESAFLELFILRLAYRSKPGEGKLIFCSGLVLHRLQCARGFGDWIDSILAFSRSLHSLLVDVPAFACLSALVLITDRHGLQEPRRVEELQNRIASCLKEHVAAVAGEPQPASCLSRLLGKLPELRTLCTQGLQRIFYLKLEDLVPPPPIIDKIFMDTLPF

[2] = molecular target: T1, LBD fragment of human Nur77 (residues …); assay: SPR; conditions: both partners purified
[3] = molecular target: T1, LBD fragment of human Nur77 (residues …); assay: MST; conditions: both partners purified
[4] = molecular target: T2, SmallBit-Nur77 (luciferase SmallBit fusion of Nur77) (UniProt P22736 1-598); assay: split reporter (BiFC, NanoBiT); conditions: one partner purified
T2 construct: Nur77; source: HEK293T, transiently transfected, in living cells
T2 sequence (P22736 whole entry, the tested form may be a part): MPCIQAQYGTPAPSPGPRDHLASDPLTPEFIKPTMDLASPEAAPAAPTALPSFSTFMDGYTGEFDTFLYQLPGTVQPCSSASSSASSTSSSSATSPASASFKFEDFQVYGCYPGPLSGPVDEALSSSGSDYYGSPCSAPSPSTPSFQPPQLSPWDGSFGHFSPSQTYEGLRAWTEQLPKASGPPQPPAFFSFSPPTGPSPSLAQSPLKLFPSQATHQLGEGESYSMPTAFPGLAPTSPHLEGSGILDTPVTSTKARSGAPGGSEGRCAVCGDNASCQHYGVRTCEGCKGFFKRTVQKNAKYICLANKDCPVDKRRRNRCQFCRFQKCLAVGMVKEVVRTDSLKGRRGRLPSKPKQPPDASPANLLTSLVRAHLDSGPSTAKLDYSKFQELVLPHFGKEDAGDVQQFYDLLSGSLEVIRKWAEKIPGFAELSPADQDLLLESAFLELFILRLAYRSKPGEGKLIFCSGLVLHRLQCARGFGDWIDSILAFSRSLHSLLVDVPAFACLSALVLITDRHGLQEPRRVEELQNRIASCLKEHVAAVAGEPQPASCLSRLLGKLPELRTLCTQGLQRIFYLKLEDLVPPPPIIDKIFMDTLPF

Binder | Kd [1] | binding result [1] | also measured
SRNKCQYCRFQKCLAV-NH2 (peptide, UniProt P37231 186-201, looked up, cysteine pairing not given here, PPARγ, residues Ser186-Val201 of the DBD; Made on Rink amide resin, so probably a C-terminal amide; source: synthetic peptide (Fmoc SPPS on Rink Amide MBHA resin)) [SV16, α-helix of PPARγ (residues Ser186-Val201)] | 156 µM |  | 
CEGCKGF[S5]RRT[S5]RY-NH2 (staple 8-12; cysteine pairing not given here) [S-CY14 (stapled CY14)] | 3.96 µM |  | 
H-CEGCKGF[S5]RRT[S5]RYYGRKKRRQRRR-NH2 (staple 8-12; cysteine pairing not given here) [ST-CY14 (stapled T-CY14)] |  |  | Kd [2]: 32.5 nM; Kd [3]: 668 nM; EC50 [4]: 3.15 µM
CEGCKGFFRRTIRY-NH2 (peptide, UniProt P37231 156-169, looked up, cysteine pairing not given here, PPARγ, residues Cys156-Leu169, with Leu169 mutated to Tyr; source: synthetic peptide (Fmoc SPPS on Rink Amide MBHA resin)) [CY14 (CL14 with Leu169 mutated to Tyr)] | 8.7 µM |  | 
CEGCKGFFRRTIRL-NH2 (peptide, UniProt P37231 156-169, looked up, cysteine pairing not given here, PPARγ, residues Cys156-Leu169 of the DBD; Made on Rink amide resin, so probably a C-terminal amide; source: synthetic peptide (Fmoc SPPS on Rink Amide MBHA resin)) [CL14, α-helix of PPARγ (residues Cys156-Leu169)] | 27.2 µM |  | 
CEGCKGFFRRTIRF (peptide, UniProt P37231 156-169, looked up, PPARγ, residues Cys156-Leu169, with Leu169 mutated to Phe; source: synthetic peptide (Fmoc SPPS on Rink Amide MBHA resin)) [CF14 (CL14 with Leu169 mutated to Phe)] |  | binds | 
CEGCKGFFRRTIRW (peptide, UniProt P37231 156-169, looked up, PPARγ, residues Cys156-Leu169, with Leu169 mutated to Trp; source: synthetic peptide (Fmoc SPPS on Rink Amide MBHA resin)) [CW14 (CL14 with Leu169 mutated to Trp)] |  | binds | 
CEGCKGFFRRTIRH (peptide, UniProt P37231 156-169, looked up, PPARγ, residues Cys156-Leu169, with Leu169 mutated to His; source: synthetic peptide (Fmoc SPPS on Rink Amide MBHA resin)) [CH14 (CL14 with Leu169 mutated to His)] |  | binds | 
CEGCKGFFRRTIRYRKKRRQRRR-NH2 (cysteine pairing not given here) [T-CY14 (CY14 with the TAT sequence conjugated to its C-terminus)] |  |  | Kd [3]: 4180 nM
